# Test results published in publication PMC3079231 (International journal of mass spectrometry, 2011).
# Where a chain is given by its changes, count along the chain named. In names and notes the source's numbering stands.
# B1: Salmonella typhimurium AhpC T77I mutant (enzyme)
# chain: SLINTKIKPFKNQAFKNGEFIEVTEKDTEGRWSVFFFYPADFTFVCPTELGDVADHYEELQKLGVDVYSVSTDTHFIHKAWHSSSETIAKIKYAMIGDPTGALTRNFDNMREDEGLADRATFVVDPQGIIQAIEVTAEGIGRDASDLLRKIKAAQYVAAHPGEVCPAKWKEGEATLAPSLDLVGKI
# modifications: oxidized form: intersubunit disulfide (Cys-46 to Cys-165); reduced form (TCEP): free thiols
# B2: Salmonella typhimurium AhpC T77V mutant (enzyme)
# chain: B1 chain with I77V
# modifications: oxidized form: intersubunit disulfide (Cys-46 to Cys-165); reduced form (TCEP): free thiols
# Molecular target: the molecule itself
# Experiment: HDX-MS
row,Protein,binding result
1,B1,binds
2,B2,binds
